Results from patent publication US20230235048A1 (PROTHENA BIOSCIENCES, published 2023).

Key:
[1] = molecular target: T1, extracellular domain (ECD) of recombinant human Sortilin with a C-terminal HIS tag (ECD-huSortilin-HIS) (human, UniProt Q99523 78-755); experiment: blocking ELISA, coated ECD-huSortilin-HIS; blocked ligand huPGRN-Biotin
T1 construct: Bought (R&D Systems); also called human sortilin-ECD; not shown: C-terminal HIS tag
T1 sequence: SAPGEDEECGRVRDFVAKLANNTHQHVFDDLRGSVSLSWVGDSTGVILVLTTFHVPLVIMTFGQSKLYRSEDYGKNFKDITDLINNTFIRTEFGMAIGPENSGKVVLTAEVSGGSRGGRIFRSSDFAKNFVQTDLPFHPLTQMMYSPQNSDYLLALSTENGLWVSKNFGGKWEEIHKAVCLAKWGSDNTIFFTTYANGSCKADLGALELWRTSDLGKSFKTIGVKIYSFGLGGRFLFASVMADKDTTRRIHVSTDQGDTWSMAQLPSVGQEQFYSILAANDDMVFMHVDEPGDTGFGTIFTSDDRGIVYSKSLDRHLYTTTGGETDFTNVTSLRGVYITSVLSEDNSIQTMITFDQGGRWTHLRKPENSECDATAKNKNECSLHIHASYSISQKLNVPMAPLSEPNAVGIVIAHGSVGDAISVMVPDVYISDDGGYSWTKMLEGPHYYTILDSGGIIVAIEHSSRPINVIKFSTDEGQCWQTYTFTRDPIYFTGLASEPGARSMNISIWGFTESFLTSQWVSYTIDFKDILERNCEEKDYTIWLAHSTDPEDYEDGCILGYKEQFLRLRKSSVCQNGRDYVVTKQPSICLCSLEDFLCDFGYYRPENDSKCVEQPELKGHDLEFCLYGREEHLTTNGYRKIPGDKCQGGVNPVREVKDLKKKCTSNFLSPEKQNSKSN

[2] = molecular target: T2, human sortilin on the cell surface (recombinant huSortilin on HEK 293 cells; endogenous on U251MG cells) (human, UniProt Q99523 78-831); experiment: cell-based blocking titration (flow cytometry), huSortilin HEK293 cells; blocked ligand 30 nM huPGRN-Biotin
T2 construct: whole, on cells; also called huSortilin expressing HEK293 cells; cell surface huSortilin
T2 sequence (looked up): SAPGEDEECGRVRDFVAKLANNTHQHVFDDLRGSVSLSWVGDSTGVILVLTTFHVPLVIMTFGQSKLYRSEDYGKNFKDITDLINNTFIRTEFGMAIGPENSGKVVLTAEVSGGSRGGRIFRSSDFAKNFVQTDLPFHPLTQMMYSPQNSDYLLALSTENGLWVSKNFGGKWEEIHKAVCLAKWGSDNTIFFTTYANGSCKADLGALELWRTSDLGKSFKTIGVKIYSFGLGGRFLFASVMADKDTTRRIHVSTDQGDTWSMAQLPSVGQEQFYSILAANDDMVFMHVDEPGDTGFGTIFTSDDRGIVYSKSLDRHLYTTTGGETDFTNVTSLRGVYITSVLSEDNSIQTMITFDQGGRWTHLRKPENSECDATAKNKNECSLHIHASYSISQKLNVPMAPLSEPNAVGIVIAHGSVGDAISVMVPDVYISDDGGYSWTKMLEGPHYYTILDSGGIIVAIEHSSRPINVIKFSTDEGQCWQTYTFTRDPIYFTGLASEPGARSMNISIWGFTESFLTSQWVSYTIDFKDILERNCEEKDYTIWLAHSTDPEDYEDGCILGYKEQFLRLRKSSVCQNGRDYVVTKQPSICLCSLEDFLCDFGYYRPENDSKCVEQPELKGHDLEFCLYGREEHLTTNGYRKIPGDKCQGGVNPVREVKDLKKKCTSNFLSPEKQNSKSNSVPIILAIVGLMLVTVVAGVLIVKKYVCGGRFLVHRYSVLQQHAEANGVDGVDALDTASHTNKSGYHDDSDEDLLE
Experimental: Cells were cultured using standard methods. […] Cells were then washed twice in PBS+2% FBS and incubated for 30 minutes on ice with 50 uL per well 1:200 Steptavidin-APC (BD biosciences) in PBS+2% FBS. Cells were then washed as above and resuspended in 100 uL PBS+2% FBS. Data was acquired using the BD LSR II and analyzed using FlowJo software version 10.6 and Microsoft excel.
The cell-based blocking assay was repeated with the top 12 blocking mAbs using a dose titration from 67 nM to 0.4 nM. Blocking assay was carried out as above. Data was analyzed using FlowJo software version 10.6. and GraphPad Prism software.

[3] = molecular target: T1, extracellular domain (ECD) of …; experiment: ELISA, Ab binding to hSortilin-ECD
Experimental: Purified anti-huSortilin mAb binding to huSortilin was characterized by ELISA (ELISA protocol as in Example 1) using a 12 point titration of mAb concentration. mAbs were diluted 2-fold from a starting concentration of 67 nM and then added to ECD-huSortilin-HIS coated plates. Data was analyzed and EC₅₀ (nM) was calculated using graphed Prism. Commercially available goat anti-huSortilin (R&D Biosystems) was used as a positive control. Results are depicted in FIG. 8.

[4] = molecular target: T3, sortilin array peptides with the consensus motif RTEFGMAIGP (human, not fully specified; array peptides cyclized via a thioether linkage between a C-terminal cysteine and a modified N-terminus); experiment: PEPperMAP conformational (cyclized) peptide microarray, mAb 10-100 ug/mL
T3 construct: Consensus motif of overlapping 7, 10 and 13 amino acid conformational microarray peptides
T3 peptide: RTEFGMAIGP

[5] = molecular target: T1, extracellular domain (ECD) of …; experiment: SPR (Biacore T200), mAb captured by anti-mouse antibody on CM5, Sortilin 0.1-300 nM as analyte, global 1:1 fit
Experimental: Analysis was performed using a Biacore T200 to compare the binding affinity of murine anti-huSortilin antibodies to recombinant human Sortilin. Anti-mouse antibody was immobilized on sensor chip CM5 (GE Healthcare Life Sciences) via amine coupling, and mouse antibodies (ligand) were captured to a level to ensure a maximum binding of analyte of 50 RU (approximately 100RU of ligand binding). Various concentrations of Sortilin (ranging from 0.1 nM to 300 nM) were passed over the captured ligand at […] in running buffer (HBS+0.05% P-20, 1 mg/mL BSA) for 180-300s association time and 300-900s dissociation time. Regeneration of the chip surface was accomplished by 2 short injections of 10 mM Glycine-HCl at pH 1.7. Data was blank subtracted to both a sensor not containing ligand and 0 nM analyte concentration. Analysis was performed using a global 1:1 fit with Biacore Insight Evaluation software (v2.0) with bulk refractive index set to zero RU.

[6] = molecular target: T1, extracellular domain (ECD) of …; experiment: blocking ELISA, coated ECD-huSortilin-HIS, purified mAb; blocked ligand huPGRN-Biotin

Binder | % Blocking at 7.4nM mAb [1] [%] | % Max blocking at 11nM mAb [2] [%] | EC50 [3] [nM] | binding result [4] | Kd [5] [nM] | IC50 (read off the curve) [6] [nM] | koff [5] [s⁻¹] | kon [5] [M⁻¹ s⁻¹]
mouse monoclonal antibody 8H24 (antibody, mouse IgG2c, V domains shown, mouse IgG2c, kappa; also called mu8H24; m8H24) VH: QAYLQQSGTELVRPGASVKMSCKASGYTFTSYSMHWVKQTPRQGLEWIGAIYPGNDATSYNQKFKGKATLTVDKSSSTAYMQLSSLTSEDSAVYFCAREGYYGSSFEAWFASWGQGTLVTVSA VL: DVLMTQTPLSLPVSLGDQASISCRSSQSIVHSNGNTYLEWYLQKPGQSPKLLIYKVSNRFSGVPDRFSGSGSGTDFTLKISRVEAEDLGVYYCFQGSHVLPTFGGGTKLEIK | 89 | 66 | 0.4 | binds | 4.56 |  |  | 
mouse monoclonal antibody 2C14 (antibody, mouse IgG1, V domains shown, mouse IgG1, kappa) VH: EVQLVESGGDLVKPGGSLKLSCAASGFTFNTHGMSWVRQTPDKSLEWVATISTGGFYTSYPDSVKGRFTISRDNAKNTLFLQMSSLKSEDTAMYYCAKSSSHWYFDVWGTGTTVTVSS VL: DILMTQSPSSMSVSLGDTVSITCHASQGISSNIGWLQQKPGKSFKGLIYHGTNLEDGVPSRFSGSGSGADYSLTISSLEYEDFADYYCVQYAHFPYTFGGGTKLEIK | 79 | 64 | 1 |  | 11.8 |  |  | 
mouse monoclonal antibody 5E20 (antibody, mouse IgG1, V domains shown, mouse IgG1, kappa; also called ms5E20; ms5E20new) VH: EVQLVESGGDLVKPGGSLKLSCAAPGFTFSTYGMSWVRQTPDKRLEWVAIISSGGSYTYYSDTVKGRFTISRDNAKNTLYLQMSSLKSEDTAMYYCSRSSSHWYFDVWGTGTTVTVSS VL: DILMTQSPSSMSVSLGDTVSITCHASQGISSNIGWLQQKPGKSFKGLIYHGTNLKDGVPSRFSGSGSGADFSLTISSLESEDFADYFCVQYAQFPYTFGGGTKLEKR | 76 | 54 | 1.1 |  | 1.59 |  |  | 
mouse monoclonal antibody 6B15 (antibody, mouse IgG1, V domains shown, mouse IgG1, kappa) VH: EVQLVESGGDLVKPGGSLKLSCAAPGFTFSTYGMSWVRQTPDKRLEWVAIISSGGSYTYYSDTVKGRFTISRDNAKNTLNLQMSSLKSEDTAMYFCSRSSSHWYFDVWGTGTTVTVSS VL: DILMTQFPSSMSVSLGDTVSITCHASQGISSNIGWLQQKPGKSFKGLIYHGTNLKDGVPSRFSGSGSGTDFSLTISSLESEDFADYYCVQYAQFPYTFGGGTKLEKR | 51 | 33 | 3.8 |  | 1.02 | ~5 |  | 
mouse monoclonal antibody 11M14 (antibody, mouse IgG1, V domains shown, mouse IgG1, kappa; also called ms11M14) VH: EVQLVESGGDLVKPGGSLKLSCAASGFTFNIYGMSWVRQTPDKRLEWVATISSGGIYTYYPDILKGRFTISRDNAKNTLYLQMSSLKSEDTAMYYCARHPGGAMDYWGQGTSVTVSS VL: DIQMTQSPASLSVSVGETVTITCRVSENIYSNLAWYQQKQGKSPHLLVYAATNLADGVPSRFSGSGSGTQYSLKINSLQSEDFGSYYCQHFWGTPPWTFGGGTKLEIK | 75 | 48 | 0.8 |  | 6.24 |  |  | 
mouse monoclonal antibody 2F18 (antibody, mouse IgG1, V domains shown, mouse IgG1, kappa) VH: EVQLVESGGDLVKPGGSLKLSCAASGFTFNIYGMSWVRQTPDKRLEWVATISTGGIYTYYPDSVKGRFTISRDNAKNTLYLQMSSLKSEDTAMYYCARHPVGALDYWGQGTSVTVSS VL: DIQVTQSPASLSVSVGETVTITCRASENIYSNLAWYQQKQGKSPHLLVYTATTLADGVPSRFSGSGSGTQYSLKINSLQSEDFGSYYCQHFWGTPPWTFGGGTKLEIK | 76 | 41 | 0.7 |  | 2.81 |  |  | 
mouse monoclonal antibody 9N18 (antibody, mouse IgG2b, V domains shown, mouse IgG2b, kappa) VH: EIQLQQSGPELVKPGASVKISCKASGYSFTGYYMNWVKQSPEKSLEWIGEINPITGGTTYNQNFKAKATLTVDKSSSTAYLQLRSLTSEDSAVYYCASDYFGSNSWFAYWGQGTLVTVSA VL: DVLMTQTPLSLPVSLGDQASISCRSSQSIVHRNGNTYLEWYLQKPGQSPKLLIYKVSNRFSGVPDRFSGSGSGTDFTLRISRVEAEDLGVYYCFQGSHVPYTFGGGTKLEIK | 65 | 45 | 0.8 |  |  |  |  | 
mouse monoclonal antibody 2P22 (antibody, mouse IgG2b, V domains shown, mouse IgG2b, kappa) VH: EVQLVESGGDLVKPGGSLKLSCAASGFTFSIYGMSWVRQTPDKKLEWVAAISSGGIYTYYPDSVKGRFTISRDNAKNTLYLQMSSLKSADTAMYYCTRNDYDWFAYWGQGTLVTVSA VL: DIQMTQSPSSLSASLGERVSLTCRASQDIGSSLNWLQQEPDGTIKRLIYATSSLDSGVPKRFSGSRSGSDYSLTISSLESEDFVDYYCLQYASSPYTFGGGTKLEIK | 67 | 40 | 0.8 |  | 2.21 |  |  | 
mouse monoclonal antibody 5M13 (antibody, mouse IgG1, V domains shown, mouse IgG1, kappa) VH: DVQLQESGPGLVKPSQSLSLTCTVTGYSITSDYAWNWIRQFPGNKLEWMGYISSSGSTSYNPSLKSRISVTRDTSKNQFFLQLNFVTAEDTATYYCAFVTTTMDYWGQGTSVTVSS VL: DVVMTQTPLSLPVSLGDQASISCRSSQSLVHSNGNTYLHWYLQKPGQSPKLLIYTVSNRFSGVPDRFSGSGSGTDFTLKISRVEAEDLGVYFCSQSTHVPFTFGSGTKLEIK | 27 | 0 | 2.7 |  | 2.29 |  | 0.000411 | 179000
